Results as given in publication PMC7731665 (Frontiers in Immunology, 2020).

Target: T1, vimentin in lupus nephritis kidney tissue (Homo sapiens, UniProt P08670)
T1 construct: endogenous vimentin of human lupus nephritis biopsies; vimentin-rich zones marked with the anti-vimentin antibody V9; also called Vim^hi zones of inflamed lupus kidney; source: endogenous, paraffin embedded human lupus kidney biopsies
Test: immunostaining of cells or tissue; paraffin embedded lupus nephritis kidney biopsies, FLAG-tagged human IgG1 mAbs detected with rat anti-FLAG and Alexa Fluor 488 anti-rat IgG, co-stained with V9 and Hoechst; confocal microscopy, per field of view
Details: one partner purified

T1 sequence (P08670 whole entry): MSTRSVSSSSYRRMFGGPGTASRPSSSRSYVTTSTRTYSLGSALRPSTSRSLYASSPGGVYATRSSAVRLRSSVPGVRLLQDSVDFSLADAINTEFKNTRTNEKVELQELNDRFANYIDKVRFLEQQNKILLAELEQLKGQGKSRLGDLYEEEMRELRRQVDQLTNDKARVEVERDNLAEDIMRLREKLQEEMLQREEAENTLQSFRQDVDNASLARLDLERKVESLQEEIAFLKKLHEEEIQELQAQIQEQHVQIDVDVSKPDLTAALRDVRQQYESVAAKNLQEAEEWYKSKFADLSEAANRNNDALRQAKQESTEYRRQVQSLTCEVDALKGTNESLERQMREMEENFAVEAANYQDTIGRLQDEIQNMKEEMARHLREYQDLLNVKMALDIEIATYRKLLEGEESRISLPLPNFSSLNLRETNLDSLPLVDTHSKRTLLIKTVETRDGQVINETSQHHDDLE

B1: FLAG-tagged PB4rev (antibody, V domains shown)
VH: QVQLQESGPGLVKPSETLSLTCTVSGGSISSYYWSWIRQPAGKGLEWIGRIYTSGSTNYNPSLKSRVTMSVDTSKNQFSLKLSSVTAADTAVYYCARESRGAVLTGDYYYYYYMDVWGKGTTVTVSS
VL: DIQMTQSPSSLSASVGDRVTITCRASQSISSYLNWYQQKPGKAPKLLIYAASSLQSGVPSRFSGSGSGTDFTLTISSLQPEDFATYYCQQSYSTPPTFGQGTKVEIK
notes: as the heavy chain of m8; as the light chain of m8; also called PB4rev (FLAG); source: heavy chain vector FJ475055 with FLAG co-expressed with the light chain plasmid, purified with protein A; not shown: FLAG, C-terminal, kept
B1: binds.
